{
  "source": "patent US20220195407",
  "about": "“OPTIMIZATION OF ENGINEERED MEGANUCLEASES FOR RECOGNITION SEQUENCES” (Precision BioSciences, Inc., published 2022)",
  "test_in_all_cases": "cell_activity; CHO iGFFP reporter",
  "key": {"[1]": {"biological_target": "T1, LOX 3-4m.2329 (artificial (I-CreI derived))", "T1 chain": "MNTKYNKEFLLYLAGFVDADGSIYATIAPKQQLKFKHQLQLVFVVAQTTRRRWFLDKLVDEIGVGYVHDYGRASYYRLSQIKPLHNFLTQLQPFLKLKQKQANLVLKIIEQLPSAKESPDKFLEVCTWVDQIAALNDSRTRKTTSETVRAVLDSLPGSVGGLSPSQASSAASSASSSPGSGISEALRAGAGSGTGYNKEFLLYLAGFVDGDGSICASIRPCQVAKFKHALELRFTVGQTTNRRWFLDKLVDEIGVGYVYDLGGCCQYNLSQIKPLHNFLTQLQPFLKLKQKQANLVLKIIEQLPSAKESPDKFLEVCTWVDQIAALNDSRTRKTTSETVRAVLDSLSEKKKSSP", "description": "(§1) A CHO cell reporter system (see WO/2012/167192, FIG. 3) was used to determine whether the engineered meganucleases generated in these studies could recognize and cleave the modified LOX 3-4 recognition sequences in Table 87. To perform the assay, a pair of CHO cell reporter lines were produced, which carried a non-functional Green Fluorescent Protein (GFP) gene expression cassette integrated into the genome of the cell. The GFP gene in each cell line was interrupted by a pair of recognition sequences such that intracellular cleavage of either recognition sequence by a meganuclease would stimulate a homologous recombination event resulting in a functional GFP gene. In both cell lines, one of the recognition sequences was derived from the LOX 3-4 recognition sequence (i.e., those sequences disclosed in Table 87), and the second recognition sequence was specifically recognized by a control meganuclease called “CHO 23/24.” CHO reporter cells comprising a recognition sequence derived from the LOX 3-4 recognition sequence and the CHO 23/24 recognition sequence are referred to herein as “test cells.”\n(§2) Novel engineered meganucleases derived from the LOX 3-4x.109 meganuclease were prepared by making amino acid substitutions at one or more positions in the first subunit and one or more positions in the second subunit. These engineered meganucleases were then evaluated for cleavage of the LOX 3-4 recognition sequence modified to have an ATAT center sequence (SEQ ID NO: 200) in the CHO reporter assay according to Example 1."}, "[2]": {"biological_target": "T2, LOX 3-4m.2313 (artificial (I-CreI derived))", "T2 chain": "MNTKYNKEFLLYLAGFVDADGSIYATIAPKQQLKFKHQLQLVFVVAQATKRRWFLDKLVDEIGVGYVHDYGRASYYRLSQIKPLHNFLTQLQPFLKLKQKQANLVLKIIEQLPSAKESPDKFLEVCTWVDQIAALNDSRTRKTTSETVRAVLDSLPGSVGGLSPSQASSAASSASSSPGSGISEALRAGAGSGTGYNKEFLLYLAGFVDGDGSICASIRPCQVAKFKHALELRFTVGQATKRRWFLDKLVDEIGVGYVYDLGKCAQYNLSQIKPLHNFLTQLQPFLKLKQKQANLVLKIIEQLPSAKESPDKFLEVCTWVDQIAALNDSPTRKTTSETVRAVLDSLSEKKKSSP", "description": "as §1, §2"}, "[3]": {"biological_target": "T3, LOX 3-4m.2330 (artificial (I-CreI derived))", "T3 chain": "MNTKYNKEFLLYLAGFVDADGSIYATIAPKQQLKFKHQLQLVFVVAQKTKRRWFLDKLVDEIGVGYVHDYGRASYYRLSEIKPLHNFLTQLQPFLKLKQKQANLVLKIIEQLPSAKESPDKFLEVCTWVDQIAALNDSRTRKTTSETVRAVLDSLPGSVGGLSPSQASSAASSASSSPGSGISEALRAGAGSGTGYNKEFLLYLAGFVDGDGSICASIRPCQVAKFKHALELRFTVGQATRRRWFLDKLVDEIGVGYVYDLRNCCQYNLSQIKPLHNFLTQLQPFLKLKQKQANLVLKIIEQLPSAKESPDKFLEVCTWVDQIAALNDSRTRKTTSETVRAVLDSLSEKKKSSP", "description": "as §1, §2"}, "[4]": {"biological_target": "T4, LOX 3-4m.2248 (artificial (I-CreI derived))", "T4 chain": "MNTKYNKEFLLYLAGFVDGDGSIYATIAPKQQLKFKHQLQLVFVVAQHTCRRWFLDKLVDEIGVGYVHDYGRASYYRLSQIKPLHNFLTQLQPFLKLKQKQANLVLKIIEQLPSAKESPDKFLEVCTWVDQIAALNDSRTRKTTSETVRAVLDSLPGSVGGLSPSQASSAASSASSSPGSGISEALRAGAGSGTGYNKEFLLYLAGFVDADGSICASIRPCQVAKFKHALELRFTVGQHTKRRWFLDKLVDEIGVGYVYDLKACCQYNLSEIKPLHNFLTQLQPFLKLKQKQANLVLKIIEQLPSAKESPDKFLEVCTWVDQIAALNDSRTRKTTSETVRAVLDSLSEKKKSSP", "description": "as §1, §2"}, "[5]": {"biological_target": "T5, LOX 3-4m.1500 (artificial (I-CreI derived))", "T5 chain": "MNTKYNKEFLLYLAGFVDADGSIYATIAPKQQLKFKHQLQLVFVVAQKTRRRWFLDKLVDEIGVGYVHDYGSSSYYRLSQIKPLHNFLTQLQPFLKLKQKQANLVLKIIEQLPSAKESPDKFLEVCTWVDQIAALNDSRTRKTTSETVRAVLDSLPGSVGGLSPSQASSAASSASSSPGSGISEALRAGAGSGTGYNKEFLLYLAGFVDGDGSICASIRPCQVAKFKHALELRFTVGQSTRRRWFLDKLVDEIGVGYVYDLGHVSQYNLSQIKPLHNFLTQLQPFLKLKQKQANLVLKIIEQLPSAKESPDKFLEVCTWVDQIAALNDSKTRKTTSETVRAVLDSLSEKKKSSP", "description": "as §1\nas §2, with “ATGA” for “ATAT”, “220)” for “200)”"}, "[6]": {"biological_target": "T6, LOX 3-4m.1421 (artificial (I-CreI derived))", "T6 chain": "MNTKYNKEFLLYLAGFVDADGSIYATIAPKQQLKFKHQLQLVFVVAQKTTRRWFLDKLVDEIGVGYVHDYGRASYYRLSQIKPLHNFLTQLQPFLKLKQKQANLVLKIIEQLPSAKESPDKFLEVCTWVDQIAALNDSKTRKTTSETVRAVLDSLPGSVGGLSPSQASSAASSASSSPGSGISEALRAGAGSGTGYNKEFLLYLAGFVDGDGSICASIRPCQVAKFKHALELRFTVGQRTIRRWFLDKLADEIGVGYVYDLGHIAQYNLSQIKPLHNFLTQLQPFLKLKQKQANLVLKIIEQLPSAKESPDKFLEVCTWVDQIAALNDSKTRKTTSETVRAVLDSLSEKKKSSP", "description": "as §1\nas §2, with “ATGA” for “ATAT”, “220)” for “200)”"}, "[7]": {"biological_target": "T7, LOX 3-4m.1506 (artificial (I-CreI derived))", "T7 chain": "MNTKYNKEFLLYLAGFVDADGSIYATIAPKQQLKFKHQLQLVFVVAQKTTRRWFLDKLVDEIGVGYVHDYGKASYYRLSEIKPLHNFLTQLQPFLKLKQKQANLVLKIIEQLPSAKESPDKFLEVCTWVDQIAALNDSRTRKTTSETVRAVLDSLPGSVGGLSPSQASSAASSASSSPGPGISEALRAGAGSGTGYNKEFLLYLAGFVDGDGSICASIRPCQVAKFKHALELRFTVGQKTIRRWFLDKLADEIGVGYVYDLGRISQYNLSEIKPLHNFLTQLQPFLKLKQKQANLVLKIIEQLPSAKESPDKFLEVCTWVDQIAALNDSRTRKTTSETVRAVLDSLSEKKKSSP", "description": "as §1\nas §2, with “ATGA” for “ATAT”, “220)” for “200)”"}, "[8]": {"biological_target": "T8, LOX 3-4m.1486 (artificial (I-CreI derived))", "T8 chain": "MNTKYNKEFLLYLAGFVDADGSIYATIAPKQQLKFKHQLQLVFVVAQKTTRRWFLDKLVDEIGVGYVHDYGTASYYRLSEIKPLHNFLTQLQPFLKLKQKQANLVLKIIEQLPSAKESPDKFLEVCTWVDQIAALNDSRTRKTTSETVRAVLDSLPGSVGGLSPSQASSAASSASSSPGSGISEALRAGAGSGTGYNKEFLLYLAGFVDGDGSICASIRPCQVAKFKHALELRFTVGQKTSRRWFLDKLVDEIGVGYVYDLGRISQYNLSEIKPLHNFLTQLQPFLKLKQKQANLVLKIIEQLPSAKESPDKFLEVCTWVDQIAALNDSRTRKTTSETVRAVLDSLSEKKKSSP", "description": "as §1\nas §2, with “ATGA” for “ATAT”, “220)” for “200)”"}, "[9]": {"biological_target": "T9, LOX 3-4m.1854 (artificial (I-CreI derived))", "T9 chain": "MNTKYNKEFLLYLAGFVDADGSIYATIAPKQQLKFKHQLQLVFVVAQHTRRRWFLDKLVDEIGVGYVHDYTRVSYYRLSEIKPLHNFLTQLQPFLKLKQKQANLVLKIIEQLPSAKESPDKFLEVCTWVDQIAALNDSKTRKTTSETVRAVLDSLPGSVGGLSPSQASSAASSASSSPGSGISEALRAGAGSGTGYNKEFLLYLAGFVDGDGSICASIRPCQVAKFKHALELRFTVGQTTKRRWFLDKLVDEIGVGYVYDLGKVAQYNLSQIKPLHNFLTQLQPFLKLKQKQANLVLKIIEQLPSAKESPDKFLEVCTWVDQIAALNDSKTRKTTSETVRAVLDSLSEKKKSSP", "description": "as §1\nas §2, with “a GCAA” for “an ATAT”, “267)” for “200)”"}, "[10]": {"biological_target": "T10, LOX 3-4m.1868 (artificial (I-CreI derived))", "T10 chain": "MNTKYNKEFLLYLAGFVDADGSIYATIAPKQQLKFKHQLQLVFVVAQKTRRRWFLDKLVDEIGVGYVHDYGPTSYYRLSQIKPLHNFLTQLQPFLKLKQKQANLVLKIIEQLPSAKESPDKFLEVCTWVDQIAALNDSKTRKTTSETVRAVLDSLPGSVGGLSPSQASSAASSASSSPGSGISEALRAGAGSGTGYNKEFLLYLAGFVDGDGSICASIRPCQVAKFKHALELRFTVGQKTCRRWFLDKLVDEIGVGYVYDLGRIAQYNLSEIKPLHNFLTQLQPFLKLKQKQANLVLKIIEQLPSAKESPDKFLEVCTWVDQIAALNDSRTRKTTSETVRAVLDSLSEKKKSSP", "description": "as §1\nas §2, with “a GCAA” for “an ATAT”, “267)” for “200)”"}, "[11]": {"biological_target": "T11, LOX 3-4m.1875 (artificial (I-CreI derived))", "T11 chain": "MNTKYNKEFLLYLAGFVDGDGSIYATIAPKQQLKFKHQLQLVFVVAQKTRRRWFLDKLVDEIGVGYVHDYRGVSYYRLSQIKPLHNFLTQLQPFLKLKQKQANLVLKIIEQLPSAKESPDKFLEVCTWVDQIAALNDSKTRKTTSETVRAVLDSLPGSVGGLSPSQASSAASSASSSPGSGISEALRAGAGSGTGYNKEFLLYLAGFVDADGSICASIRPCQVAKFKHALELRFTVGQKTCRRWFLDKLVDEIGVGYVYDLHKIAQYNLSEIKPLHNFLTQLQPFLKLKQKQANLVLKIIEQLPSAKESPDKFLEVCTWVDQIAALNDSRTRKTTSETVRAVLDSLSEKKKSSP", "description": "as §1\nas §2, with “a GCAA” for “an ATAT”, “267)” for “200)”"}, "[12]": {"biological_target": "T12, LOX 3-4m.1789 (artificial (I-CreI derived))", "T12 chain": "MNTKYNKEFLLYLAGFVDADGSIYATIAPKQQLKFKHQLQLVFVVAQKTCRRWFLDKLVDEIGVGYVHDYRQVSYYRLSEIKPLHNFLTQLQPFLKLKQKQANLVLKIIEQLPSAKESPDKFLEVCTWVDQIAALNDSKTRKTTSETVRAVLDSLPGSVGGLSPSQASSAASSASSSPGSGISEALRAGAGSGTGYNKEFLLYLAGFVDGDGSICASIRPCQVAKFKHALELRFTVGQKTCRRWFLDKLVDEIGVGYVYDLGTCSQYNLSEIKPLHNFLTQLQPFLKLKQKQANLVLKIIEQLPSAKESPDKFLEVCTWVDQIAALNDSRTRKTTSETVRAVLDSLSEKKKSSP", "description": "as §1\nas §2, with “a GCAA” for “an ATAT”, “267)” for “200)”"}},
  "data": [
    {"binder": "LOX 3-4 ATAT (dsDNA) DNA 1: GTATAGCATATATTATACGAAG DNA 2: CTTCGTATAATATATGCTATAC", "values": [
      {"measurement": "activity", "setting": "[1]", "value": 14.9, "unit": "% GFP"},
      {"measurement": "activity", "setting": "[2]", "value": 13.1, "unit": "% GFP"},
      {"measurement": "activity", "setting": "[3]", "value": 13.9, "unit": "% GFP"},
      {"measurement": "activity", "setting": "[4]", "value": 13.8, "unit": "% GFP"}
    ]},
    {"binder": "LOX 3-4 ATGA (dsDNA) DNA 1: GTATAGCATATGATATACGAAG DNA 2: CTTCGTATATCATATGCTATAC", "values": [
      {"measurement": "activity", "setting": "[5]", "value": 3.6, "unit": "% GFP"},
      {"measurement": "activity", "setting": "[6]", "value": 8.37, "unit": "% GFP"},
      {"measurement": "activity", "setting": "[7]", "value": 8.2, "unit": "% GFP"},
      {"measurement": "activity", "setting": "[8]", "value": 9.23, "unit": "% GFP"}
    ]},
    {"binder": "LOX 3-4 GCAA (dsDNA) DNA 1: GTATAGCATGCAATATACGAAG DNA 2: CTTCGTATATTGCATGCTATAC", "values": [
      {"measurement": "activity", "setting": "[9]", "value": 7.67, "unit": "% GFP"},
      {"measurement": "activity", "setting": "[10]", "value": 7.56, "unit": "% GFP"},
      {"measurement": "activity", "setting": "[11]", "value": 8.14, "unit": "% GFP"},
      {"measurement": "activity", "setting": "[12]", "value": 8.9, "unit": "% GFP"}
    ]}
  ]
}
